# B1: Peroxisomal biogenesis factor 19 (Homo sapiens), P40855 (parent)
# chain: MAAAEEGCSVGAEADRELEELLESALDDFDKAKPSPAPPSTTTAPDASGPQKRSPGDTAKDALFASQEKFFQELFDSELASQATAEFEKAMKELAEEEPHLVEQFQKLSEAAGRVGSDMTSQQEFTSCLKETLSGLAKNATDLQNSSMSEEELTKAMEGLGMDEGDGEGNILPIMQSIMQNLLSKDVLYPSLKEITEKYPEWLQSHRESLPPEQFEKYQEQHSVMCKICEQFEAETPTDSETTQKARFEMVLDLMQQLQDLGHPPKELAGEMPPGLNFDLDALNLSGPPGASGEQCLIM
# partner: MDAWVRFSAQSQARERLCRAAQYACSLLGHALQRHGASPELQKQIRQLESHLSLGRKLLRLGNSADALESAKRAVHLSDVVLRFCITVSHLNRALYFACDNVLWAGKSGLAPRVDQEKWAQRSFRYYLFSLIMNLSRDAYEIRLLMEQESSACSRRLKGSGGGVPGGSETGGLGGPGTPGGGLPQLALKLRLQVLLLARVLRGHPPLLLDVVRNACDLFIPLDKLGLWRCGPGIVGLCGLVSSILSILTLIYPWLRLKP
# B2: Peroxisomal biogenesis factor 19 (Homo sapiens), P40855 (parent)
# chain: B1 chain
# Variants of: B1
# Settings: with px11b_human PEX11B
row,Variant,effect of a mutation on the interaction
1,MAAAEEGCSVGAEADRELEELLESALDDFDKAKPSPAPPSTTTAPDASGPQKRSPGDTAKDALFASQEKFFQELFDSELASQATAEFEKAMKELAEEEPHLVEQFQKLSEAAGRVGSDMTSQQEFTSCLKETLSGLAKNATDLQNSSMSEEELTKAMEGLGMDEGDGEGNILPIMQSIMQNPLSKDVLYPSLKEITEKYPEWLQSHRESLPPEQFEKYQEQHSVMCKICEQFEAETPTDSETTQKARFEMVLDLMQQLQDLGHPPKELAGEMPPGLNFDLDALNLSGPPGASGEQCLIM [L182P],disrupting interaction

# Variants of: B1
# Settings: with px11b_human PEX11B
# Remark: another data set of the same source
row,Variant,effect of a mutation on the interaction
1,MAAAEEGCSVGAEADRELEELLESALDDFDKAKPSPAPPSTTTAPDASGPQKRSPGDTAKDALFASQEKFFQELFDSELASQATAEFEKAMKELAEEEPHLVEQFQKLSEAAGRVGSDMTSQQEFTSCLKETLSGLAKNATDLQNSSMSEEELTKAMEGLGMDEGDGEGNILPIMQSWMQNLLSKDVLYPSLKEITEKYPEWLQSHRESLPPEQFEKYQEQHSVMCKICEQFEAETPTDSETTQKARFEMVLDLMQQLQDLGHPPKELAGEMPPGLNFDLDALNLSGPPGASGEQCLIM [I178W],disrupting interaction

# Variants of: B2
# Settings: with pex13_human PEX13, Q92968
# Chain of pex13_human PEX13, Q92968 (Q92968 whole entry): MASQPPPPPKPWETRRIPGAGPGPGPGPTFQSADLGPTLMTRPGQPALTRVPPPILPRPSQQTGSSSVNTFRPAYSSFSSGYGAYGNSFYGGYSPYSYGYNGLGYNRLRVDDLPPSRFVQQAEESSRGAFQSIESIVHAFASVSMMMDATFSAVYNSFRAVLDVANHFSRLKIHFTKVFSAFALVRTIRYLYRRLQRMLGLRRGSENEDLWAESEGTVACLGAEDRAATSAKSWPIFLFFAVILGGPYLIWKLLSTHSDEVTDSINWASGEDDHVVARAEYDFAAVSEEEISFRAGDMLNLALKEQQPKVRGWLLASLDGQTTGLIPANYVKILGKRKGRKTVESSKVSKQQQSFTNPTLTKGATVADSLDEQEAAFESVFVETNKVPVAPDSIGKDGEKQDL
row,Variant,effect of a mutation on the interaction
1,MAAAEEGCSVGAEADRELEELLESALDDFDKAKPSPAPPSTTTAPDASGPQKRSPGDTAKDALFASQEKFFQELFDSELASQATAEFEKAMKELAEEEPHLVEQFQKLSEAAGRVGSDMTSQQEFTSCLKETLSGLAKNATDLQNSSMSEEELTKAMEGLGMDEGDGEGNILPIMQSPMQNLLSKDVLYPSLKEITEKYPEWLQSHRESLPPEQFEKYQEQHSVMCKICEQFEAETPTDSETTQKARFEMVLDLMQQLQDLGHPPKELAGEMPPGLNFDLDALNLSGPPGASGEQCLIM [I178P],disrupting interaction

# Variants of: B2
# Settings: with pex13_human PEX13, Q92968
# Remark: another data set of the same source
row,Variant,effect of a mutation on the interaction
1,MAAAEEGCSVGAEADRELEELLESALDDFDKAKPSPAPPSTTTAPDASGPQKRSPGDTAKDALFASQEKFFQELFDSELASQATAEFEKAMKELAEEEPHLVEQFQKLSEAAGRVGSDMTSQQEFTSCLKETLSGLAKNATDLQNSSMSEEELTKAMEGLGMDEGDGEGNILPIMQSWMQNLLSKDVLYPSLKEITEKYPEWLQSHRESLPPEQFEKYQEQHSVMCKICEQFEAETPTDSETTQKARFEMVLDLMQQLQDLGHPPKELAGEMPPGLNFDLDALNLSGPPGASGEQCLIM [I178W],decreasing interaction

# Variants of: B2
# Settings: with pex13_human PEX13, Q92968
# Remark: another data set of the same source
row,Variant,effect of a mutation on the interaction
1,MAAAEEGCSVGAEADRELEELLESALDDFDKAKPSPAPPSTTTAPDASGPQKRSPGDTAKDALFASQEKFFQELFDSELASQATAEFEKAMKELAEEEPHLVEQFQKLSEAAGRVGSDMTSQQEFTSCLKETLSGLAKNATDLQNSSMSEEELTKAMEGLGMDEGDGEGNILPIMQSIMQNPLSKDVLYPSLKEITEKYPEWLQSHRESLPPEQFEKYQEQHSVMCKICEQFEAETPTDSETTQKARFEMVLDLMQQLQDLGHPPKELAGEMPPGLNFDLDALNLSGPPGASGEQCLIM [L182P],decreasing interaction

# Variants of: B2
# Settings: with pex13_human PEX13, Q92968
# Remark: another data set of the same source
row,Variant,effect of a mutation on the interaction
1,MAAAEEGCSVGAEADRELEELLESALDDFDKAKPSPAPPSTTTAPDASGPQKRSPGDTAKDALFASQEKFFQELFDSELASQATAEFEKAMKELAEEEPHLVEQFQKLSEAAGRVGSDMTSQQEFTSCLKETLSGLAKNATDLQNSSMSEEELTKAMEGLGMDEGDGEGNILPIMQSIMQNWLSKDVLYPSLKEITEKYPEWLQSHRESLPPEQFEKYQEQHSVMCKICEQFEAETPTDSETTQKARFEMVLDLMQQLQDLGHPPKELAGEMPPGLNFDLDALNLSGPPGASGEQCLIM [L182W],disrupting interaction

# Source: IntAct's records for PubMed 20531392
